The values that follow come from US20240287208A1 (CONCEPT TO MEDICINE BIOTECH, published 2024).

Broadly, the Kd is a measure of binding affinity in units of concentration. A higher Kd goes with weaker binding. As usually defined, the koff is a measure of how fast the partners let go of each other. Low values mean slow dissociation, high ones fast dissociation. The kon is the rate constant with which the complex forms. Low readings indicate slow association, high ones fast association. A word on the EC50: it is the concentration that produces a half-maximal response. Broadly, the EC50 (read off the curve) is the midpoint of the concentration-response curve. A lower EC50 (read off the curve) goes with greater potency.

Test [1] deals with T1, human CD40-His protein (human, UniProt P25942 21-193).
T1 construct: His-tagged recombinant protein; also called human CD40-his tag; recombinant CD40 protein
T1 sequence (P25942 21-193 limits assumed): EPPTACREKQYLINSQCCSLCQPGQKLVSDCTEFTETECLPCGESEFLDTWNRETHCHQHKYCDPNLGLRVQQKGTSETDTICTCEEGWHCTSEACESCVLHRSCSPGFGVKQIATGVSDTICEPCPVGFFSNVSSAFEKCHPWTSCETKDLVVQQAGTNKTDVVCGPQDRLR
Description: SPR Biacore T200, antibody captured on Protein A, CD40-His as analyte. Here is the method: (§1) The binding of the humanized 42p155 and 2p442 antibodies to recombinant human CD40 protein (human CD40-his tag) was tested by Biacore and Octet, respectively, using a capture method.
For humanized 42p155 monoclonal antibodies, 42p155z2 and 42p155z3 were captured using Protein A chip. A serial dilution of human CD40-his tag protein was injected over captured antibody for 3 mins at a flow rate of 10 μl/min. The antigen was allowed to dissociate for 6 min. All the experiments were carried out on a Biacore T200. Data analysis was carried out using Biacore T200 evaluation software.

For test [2], the target named is T2, human CD40 on the cell surface (human, UniProt P25942 21-277).
T2 construct: whole, on cells; also called cell surface CD40; Jurkat-CD40
T2 sequence (P25942 21-277): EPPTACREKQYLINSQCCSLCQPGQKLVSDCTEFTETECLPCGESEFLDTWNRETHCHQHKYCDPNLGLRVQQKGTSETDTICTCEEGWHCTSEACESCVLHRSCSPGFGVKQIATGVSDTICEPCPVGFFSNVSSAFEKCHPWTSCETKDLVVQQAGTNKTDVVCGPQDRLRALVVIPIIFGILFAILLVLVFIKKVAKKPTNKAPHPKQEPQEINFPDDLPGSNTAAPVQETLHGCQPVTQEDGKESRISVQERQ
Description: FACS, Jurkat cells overexpressing human CD40, PE anti-human IgG, MFI. On the procedure: To evaluate the binding affinity of 5T4-CD40 bispecific antibodies to cell surface CD40, bispecific antibodies with formats of b 1 (42p155z2), b12 (42p155z2), b13 (42p155z2), b16 (42p155z2), b17 (42p155z2) and b18 (2p1130) were tested in Jurkat cell lines that overexpressed CD40 by FACS. A total number of 1×10⁵ Jurkat-CD40 cells in each well were incubated with 5-fold serially diluted antibodies starting from 100 nM for 30 minutes at 4° C. in FACS buffer. After wash by FACS buffer, PE conjugated-anti-human IgG antibody was added to each well and incubated at 4° C. for 30 minutes. After wash, MFI of PE was evaluated by MACSQuant Analyzer 16.
(In flow cytometry, cells or beads pass a laser one at a time.)

Test [3] deals with T3, cynomolgus CD40-His protein (cynomolgus, UniProt G7PG38 21-193).
T3 construct: His-tagged recombinant protein; also called cyno CD40 antigen
Description: ELISA, plate-coated cynomolgus CD40-His. On the procedure: (§2) To evaluate the binding activity of clones 42p155, 2p834, 2p931, 42p655, 2p1294, 2p957, 42p495, 3p78, 2p415, 2p442, 2p551, 2p80 and 2p1130, the chimeric monospecific antibody (mAb) from these clones were subjected to ELISA test, along with selicrelumab, the clinical benchmark anti-CD40 agonist antibodies.
The binding affinity of these clones to cynomolgus CD40 was also tested. Microtiter plates were coated with cynomolgus CD40-His protein at 1.0 μg/ml in PBS, 100 µl/well at 4° C. overnight, then blocked with 150 µl/well of 1% BSA. Ten-fold dilutions of 42p155, 2p834, 2p931, 42p655, 2p1294, 2p957, 42p495, 3p78, 2p415, 2p442, 2p551, 2p80 and 2p1130 antibodies starting from 100 nM were added to each well and incubated for 1 hour at RT. The plates were washed with PBS/Tween and then incubated with Anti-Human IgG (H&L) (GOAT) Antibody Peroxidase Conjugated for 30 mins at RT. After washing, the plates were developed with TMB substrate and analyzed by spectrophotometer at OD 450 nm. As shown in FIG. 1B and Table 2, all these clones bound to cynomolgus CD40 at high activity, showing good cross-reactivity between human and cynomolgus CD40 proteins.
Background: ELISA stands for enzyme-linked immunosorbent assay.

Test [4] has as its target T2, human CD40 on the cell surface. The test is described as follows: cell-based or functional assay.
Test [5] concerns the target T4, human 4-1BB protein (human, UniProt Q07011 24-186).
T4 construct: also called 4-IBB
Description: ELISA, plate-coated protein. On the procedure:
(§3) To evaluate the cross reactivity of chimeric anti-CD40 antibodies to other family members of TNF receptors, the ELISA binding towards human 4-1BB and human OX40 were performed.
(§4) Briefly, microtiter plates were coated with human 4-1BB protein or human OX40 protein at 1 μg/ml in PBS, 100 μl/well at 4° C. overnight, then blocked with 150 μl/well of 1% BSA. Ten-fold dilutions of 42p155, 2p834, 2p931, 42p655, 2p1294, 2p957, 42p495, 3p78, 2p415, 2p442, 2p551, 2p80 and 2p1130 antibodies starting from 100 nM were added to each well and incubated for 1 hour at RT. The plates were washed with PBS/Tween and then incubated with Anti-Human IgG (H&L) (GOAT) Antibody Peroxidase Conjugated for 30 mins at RT. After washing, the plates were developed with TMB substrate and analyzed by spectrophotometer at OD 450 nm.

The target in test [6] is T5, human OX40 protein (human, UniProt P43489 29-216, limits assumed).
T5 sequence (looked up): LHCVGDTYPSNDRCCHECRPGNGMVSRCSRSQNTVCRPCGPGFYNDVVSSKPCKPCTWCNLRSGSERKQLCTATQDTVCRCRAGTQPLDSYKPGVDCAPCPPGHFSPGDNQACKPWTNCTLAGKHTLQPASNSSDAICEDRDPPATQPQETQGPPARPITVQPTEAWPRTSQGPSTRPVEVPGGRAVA
The test is described as follows: ELISA, plate-coated protein. Here is the method: as §3, §4

The target of test [7] is T2, human CD40 on the cell surface. The test is described as follows: FACS, Jurkat cells overexpressing human CD40, PE anti-human IgG, MFI. Here is the method:
To evaluate the binding affinity of humanized 2p442 monoclonal antibodies to cell surface CD40, 2p442z8, 2p442z9, 2p442z10 and parental 2p442 were tested in Jurkat cell lines that overexpressed CD40 by FACS. A total number of 1×10⁵ Jurkat-CD40 cells in each well were incubated with 3-fold serially diluted antibodies starting from 100 nM for 30 minutes at 4° C. in FACS buffer. After wash by FACS buffer, PE conjugated-anti-human IgG antibody was added to each well and incubated at 4° C. for 30 minutes. After wash, MFI of PE was evaluated by MACSQuant Analyzer 16.
The source holds these as a separate data set.

Test [8] concerns the target T1, human CD40-His protein. Description: BLI Octet RED96e, antibody captured on AHC, CD40-His as analyte. On the procedure: as §1
For humanized 2p442 monoclonal antibodies, 2p442z8, 2p442z9 and 2p442z10 were captured using AHC biosensor. A serial dilution of human CD40-his tag protein was incubated with captured antibody for 5 mins. The antigen was allowed to dissociate for 10 min. All the experiments were carried out on an Octet RED96e. Data analysis was carried out using Octet Analysis Studio 12.2 software.
A general note: BLI is a label-free optical method that tracks binding on a fibre tip over time.

Test [9] concerns the target T1, human CD40-His protein. The test is described as follows: ELISA, plate-coated human CD40-His. On the procedure:
as §2
as §4, with “human CD40-His” for “human 4-1BB protein or human OX40”, “at 1.0” for “at 1”, “150 µl/well” for “150 μl/well”

A value given as a limit tells only on which side of the number the result lay.

B1: 42p155z2 humanized monoclonal antibody (antibody, V domains shown)
VH: EVQLVESGGGLVQPGGSLRLSCAASGFAFRSYTMSWVRQAPGKGLEWVSTITHNGAITTYAESAQGRFTISRDNSKNTLYLQMNSLRAEDTAVYYCAQGGGSNYYRESWGQGTQVTVSS
notes: Humanized monoclonal antibody captured on Protein A; also called VHHz2
In the case of B1, in test [1], the Kd came to 186 nM, the koff amounted to 0.0368 s⁻¹ and the kon turned out to be 198000 M⁻¹ s⁻¹.

B2: 42p155z3 humanized monoclonal antibody (antibody, V domains shown)
VH: EVQLVESGGGLVQPGGSLRLSCAASGFAFRSYTMSWVRQAPGKGLEWVSTITHNGAITTYAESAQGRFTISRDNSKNTLYLQMNSLRPEDTAVYYCAQGGGSNYYRESWGQGTQVTVSS
notes: Humanized monoclonal antibody captured on Protein A; also called VHHz3
In the case of B2, in test [1], binding was characterised by a dissociation constant (Kd) of 193 nM, the koff was 0.0555 s⁻¹ and the kon came to 287000 M⁻¹ s⁻¹.

B3: b12 (42p155z2) anti-5T4/CD40 bispecific antibody (bispecific antibody, human IgG1, kappa, N297A)
heavy 1: EVQLQQSGPELVKPGASVKISCKASGYAFSSSWMNWVKQRPGKGLEWIGRIYREDGHTNYNGKFKGKATLTADKSSTTAYMQLTSLTSEDSAVYFCANGGAMDYWGQGTSVTVSSASTKGPSVFPLAPSSKSTSGGTAALGCLVKDYFPEPVTVSWNSGALTSGVHTFPAVLQSSGLYSLSSVVTVPSSSLGTQTYICNVNHKPSNTKVDKKVEPKSCDKTHTCPPCPAPELLGGPSVFLFPPKPKDTLMISRTPEVTCVVVDVSHEDPEVKFNWYVDGVEVHNAKTKPREEQYASTYRVVSVLTVLHQDWLNGKEYKCKVSNKALPAPIEKTISKAKGQPREPQVCTLPPSREEMTKNQVSLSCAVKGFYPSDIAVEWESNGQPENNYKTTPPVLDSDGSFFLVSKLTVDKSRWQQGNVFSCSVMHEALHNHYTQKSLSLSPGK
light: DIQMTQSTSSLSASLGDRVTISCRASQDISNYLNWYQQKPDGTVKLLIYYTSRLHSGVPSRFSGSGSGTDYSLTISNLEQEDIATYFCQQDNTLPWTFGGGTKLEIKRTVAAPSVFIFPPSDEQLKSGTASVVCLLNNFYPREAKVQWKVDNALQSGNSQESVTEQDSKDSTYSLSSTLTLSKADYEKHKVYACEVTHQGLSSPVTKSFNRGEC
heavy 2: not shown
notes: also called 1+1 b12 format
With B3, the binding result in test [2] is on record as “binds”.

B4: b17 (42p155z2) anti-5T4/CD40 bispecific antibody (bispecific antibody, human IgG1, kappa, N297A)
heavy 1: EVQLQQSGPELVKPGASVKISCKASGYAFSSSWMNWVKQRPGKGLEWIGRIYREDGHTNYNGKFKGKATLTADKSSTTAYMQLTSLTSEDSAVYFCANGGAMDYWGQGTSVTVSSASTKGPSVFPLAPSSKSTSGGTAALGCLVKDYFPEPVTVSWNSGALTSGVHTFPAVLQSSGLYSLSSVVTVPSSSLGTQTYICNVNHKPSNTKVDKKVEPKSCDKTHTCPPCPAPELLGGPSVFLFPPKPKDTLMISRTPEVTCVVVDVSHEDPEVKFNWYVDGVEVHNAKTKPREEQYASTYRVVSVLTVLHQDWLNGKEYKCKVSNKALPAPIEKTISKAKGQPREPQVCTLPPSREEMTKNQVSLSCAVKGFYPSDIAVEWESNGQPENNYKTTPPVLDSDGSFFLVSKLTVDKSRWQQGNVFSCSVMHEALHNHYTQKSLSLSPGKGGGGSGGGGSGGGGSGGGGSEVQLVESGGGLVQPGGSLRLSCAASGFAFRSYTMSWVRQAPGKGLEWVSTITHNGAITTYAESAQGRFTISRDNSKNTLYLQMNSLRAEDTAVYYCAQGGGSNYYRESWGQGTQVTVSS
light: DIQMTQSTSSLSASLGDRVTISCRASQDISNYLNWYQQKPDGTVKLLIYYTSRLHSGVPSRFSGSGSGTDYSLTISNLEQEDIATYFCQQDNTLPWTFGGGTKLEIKRTVAAPSVFIFPPSDEQLKSGTASVVCLLNNFYPREAKVQWKVDNALQSGNSQESVTEQDSKDSTYSLSSTLTLSKADYEKHKVYACEVTHQGLSSPVTKSFNRGEC
heavy 2: not shown
notes: also called 1+2 b17 format
On to B4, for which, in test [2], the binding result is listed as “binds”.

B5: 2p442 chimeric monospecific antibody (antibody, V domains shown)
VH: QVQLVESGGGLVQPGGSLRLSCVASGFTLDYFAIGWFRQAPGKEREGVSCISGGGSTRYADSVKGRFTISRDNAKNTVYLQMNSLTPEDTAVYYCAAARLLSRNCVPRDSGSWGQGTQVTVSS
notes: Chimeric monospecific antibody; also called parental 2p442
The molecule B5 returned a concentration for a half-maximal effect (EC50) in [3] of 0.3 nM. For the same molecule, the “CD40 NF-κB luciferase reporter (Jurkat), RLU” value in [4] was above 10 nM. The binding result in test [5] is reported as “no binding (tested: 100 nM (highest concentration))”. In addition, the binding result in test [6] is listed as “no binding (tested: 100 nM (highest concentration))”. Further, the “EC50 (read off the curve)” value in [7] is around 0.2 nM. Also, in [8], the Kd is 50.4 nM, the koff was found to be 0.0269 s⁻¹ and the kon is 534000 M⁻¹ s⁻¹. For the same molecule, the EC50 in [9] was 1.95 nM.

B6: 2p442z10 humanized monoclonal antibody (antibody, V domains shown)
VH: QVQLVESGGGLVKPGGSLRLSCAASGFTFDYFAIGWFRQAPGKELEGVSCISGGGSTRYADSVKGRFTISRDNAKNSVYLQMNSLRPEDTAVYYCAAARLLSRNCVPRDSGSWGQGTLVTVSS
notes: Humanized monoclonal antibody captured on AHC biosensor; also called VHHz10
In the case of B6, the “EC50 (read off the curve)” value in test [7] was around 0.2 nM. Moreover, in test [8], binding was put at a Kd of 69.6 nM, the koff amounted to 0.0337 s⁻¹ and the kon is 485000 M⁻¹ s⁻¹.

B7: 2p442z8 humanized monoclonal antibody (antibody, V domains shown)
VH: QVQLVESGGGLVKPGGSLRLSCAASGFTFDYFAIGWFRQAPGKGREGVSCISGGGSTRYADSVKGRFTISRDNAKNSVYLQMNSLRPEDTAVYYCARARLLSRNCVPRDSGSWGQGTLVTVSS
notes: Humanized monoclonal antibody captured on AHC biosensor; also called VHHz8
For the molecule B7, in [7], the “EC50 (read off the curve)” value is around 0.2 nM. In test [8], this molecule showed a Kd of 56.7 nM, a koff of 0.0119 s⁻¹ and a kon of 210000 M⁻¹ s⁻¹.

B8: 2p442z9 humanized monoclonal antibody (antibody, V domains shown)
VH: QVQLVESGGGLVKPGGSLRLSCAASGFTFDYFAIGWFRQAPGKELEGVSCISGGGSTRYADSVKGRFTISRDNAKNSVYLQMNSLRPEDTAVYYCARARLLSRNCVPRDSGSWGQGTLVTVSS
notes: Humanized monoclonal antibody captured on AHC biosensor; also called VHHz9
With B8, in test [7], the “EC50 (read off the curve)” value was around 0.2 nM. Also, in [8], the Kd worked out at 34.8 nM, the koff is 0.0125 s⁻¹ and the kon is 357000 M⁻¹ s⁻¹.
